Laboratory results from article PMC3589492, “Intersubunit Ionic Interactions Stabilize the Nucleoside Diphosphate Kinase of Mycobacterium tuberculosis” (PLoS ONE, 2013).

Molecular target: the molecule itself
Experiment: SEC; Superose 12 column, 50 mM Hepes pH 7.4, 150 mM sodium chloride, 0.4 mL/min, calibrated with molecular weight markers

B1: D93N mutant of the nucleoside diphosphate kinase of Mycobacterium tuberculosis (enzyme)
chain: MTERTLVLIKPDGIERQLIGEIISRIERKGLTIAALQLRTVSAELASQHYAEHEGKPFFGSLLEFITSGPVVAAIVEGTRAIAAVRQLAGGTNPVQAAAPGTIRGDFALETQFNLVHGSDSAESAQREIALWFPGA
notes: No tag is mentioned; also called D93N Mt-NDPK
Q: For B1, which “stoichiometry N” value is on record?
A: 6
